# Test results reported in patent US20260209345A1 (IOMX THERAPEUTICS, published 2026).
# Changes are numbered by the printed parent chain.
# B1: Ref062 [NGM707, cross-specific] (antibody, from another filing, V domains shown)
# VH: QVQLVQSGAEVKKPGASVKVSCKASGYTFTDYYINWVRQAPGQGLEWMGNVNPNDGGTTYNQKFKGRVTMTTDTSTSTAYMELRSLRSDDTAVYYCARREIYFYGTIYYYAMDYWGQGTLVTVSS
# VL: DIQLTQSPSFLSASVGDRVTITCRASESVDYYGNSFMYWYQQKPGKAPKLLIYFASNLESGVPSRFSGSGSGTEFTLTISSLQPEDFATYYCQQNNEDPWTFGGGTKVEIKR
# B2: A-024 (antibody, V domains shown)
# VH: QVQLVQSGAEVKKPGSSVKVSCKASGYTFTGSAMSWVRQAPGQGLEWMGGILPIFGTSVYAQKFQGRVTITADESTSTAYMELSSLRSEDTAVYYCAKGPPVGSSSWYTDWYFDLWGRGTLVTVSS
# VL: SYELTQPPSVSVSPGQTASITCSGDKLGDKYASWYQQKPGQSPVLVIYQDSKRPSGIPERFSGSNSGNTATLTISGTQAEDEADYYCLSYGAHSHGVVFGGGTKLTVL
# notes: tested as IgG
# B3: A-025 (antibody, V domains shown)
# VH: B2 VH with T30S, G31K, L52V, I54K, G56H
# VL: B2 VL
# notes: tested as IgG
# B4: A-026 (antibody, V domains shown)
# VH: B2 VH with G31S, S32H, A33G, G56H, S58A, V59T
# VL: B2 VL
# notes: tested as IgG
# B5: A-027 (antibody, V domains shown)
# VH: B2 VH with Y27G, T28S, S32Y, M34I, I54S, G56Y, S58A
# VL: B2 VL
# notes: tested as IgG
# B6: A-028 (antibody, V domains shown)
# VH: B2 VH with T28S, T30S, G31E, S32H, L52I, I54K, G56S, Y60F
# VL: B2 VL
# notes: tested as IgG
# B7: A-029 (antibody, V domains shown)
# VH: B2 VH with T30S, G31I, S32Y, L52I, I54S, G56R, S58A
# VL: B2 VL
# notes: tested as IgG
# B8: A-030 (antibody, V domains shown)
# VH: QVQLVQSGAEVKKPGSSVKVSCKASGGSFQSYAFSWVRQAPGQGLEWMGGIVPIYYTATYAQKFQGRVTITADESTSTAYMELSSLRSEDTAVYYCAKGPPVGSSSWYTDWYFDLWGRGTLVTVSS
# VL: B2 VL
# notes: tested as IgG
# B9: A-031 (antibody, V domains shown)
# VH: B2 VH with G31K, S32T, L52I, I54S, F55Y, G56Y, S58A
# VL: B2 VL
# notes: tested as IgG
# B10: A-032 (antibody, V domains shown)
# VH: B8 VH with S28T, I54Q, Y56S, T59V
# VL: B2 VL
# notes: tested as IgG
# B11: A-033 (antibody, V domains shown)
# VH: B2 VH with T30S, G31S, S32H, L52I, I54T, G56K, S58A, Y60F
# VL: B2 VL
# notes: tested as IgG
# B12: A-047 (antibody, V domains shown)
# VH: B2 VH with T30S, G31K, L52V, I54K, G56H
# VL: SYELTQPPSVSVSPGQTASITCSGDKLGDKYASWYQQKPGQSPVLVIYQDSKRPSGIPERFSGSNSGNTATLTISGTQAEDEADYYCSLYGAGHTVVFGGGTKLTVL
# notes: tested as IgG
# B13: A-039 (antibody, V domains shown)
# VH: B8 VH with S28T, Q30S, F34I, V52I, Y55F, Y56G, T59N
# VL: B12 VL with S88A, A92G
# notes: tested as IgG
# B14: A-040 (antibody, V domains shown)
# VH: B8 VH with S28T, Q30S, F34I, V52I, Y55F, Y56G, T59N
# VL: B12 VL with A92P, G93A, V96G
# notes: tested as IgG
# B15: A-041 (antibody, V domains shown)
# VH: B8 VH with S28T, Q30S, F34I, V52I, Y55F, Y56G, T59N
# VL: B12 VL with L89S, A92S, H94L
# notes: tested as IgG
# B16: A-048 (antibody, V domains shown)
# VH: B2 VH with T30S, G31K, L52V, I54K, G56H
# VL: B12 VL with S88A, A92G
# notes: tested as IgG
# B17: A-038 (antibody, V domains shown)
# VH: B8 VH with S28T, Q30S, F34I, V52I, Y55F, Y56G, T59N
# VL: B12 VL
# notes: tested as IgG
# B18: Ref047 [MK-4830, LILRB2 specific] (antibody, from another filing, V domains shown)
# VH: EVQLQQWGAGLLKPSETLSLTCAVYGGSFSGYYWSWIRQPPGKGLEWIGEINHAGSTNYNPSLKSRVTISVDTSKNQFSLKLSSVTAADTAVYYCARLPTRWVTTRYFDLWGRGTLVTVSS
# VL: ESVLTQPPSVSGAPGQRVTISCTGSSSNIGAGYDVHWYQQLPGTAPKLLIYGDSNRPSGVPDRFSVSKSGASASLAITGLQAEDEADYYCQSFDNSLSAYVFGGGTQLTVL
# Target: T1, recombinant LILRB2 ECD (human, UniProt Q8N423 22-460)
# T1 construct: also called biotinylated LILRB2 ECD
# T1 sequence (Q8N423 22-460 limits assumed): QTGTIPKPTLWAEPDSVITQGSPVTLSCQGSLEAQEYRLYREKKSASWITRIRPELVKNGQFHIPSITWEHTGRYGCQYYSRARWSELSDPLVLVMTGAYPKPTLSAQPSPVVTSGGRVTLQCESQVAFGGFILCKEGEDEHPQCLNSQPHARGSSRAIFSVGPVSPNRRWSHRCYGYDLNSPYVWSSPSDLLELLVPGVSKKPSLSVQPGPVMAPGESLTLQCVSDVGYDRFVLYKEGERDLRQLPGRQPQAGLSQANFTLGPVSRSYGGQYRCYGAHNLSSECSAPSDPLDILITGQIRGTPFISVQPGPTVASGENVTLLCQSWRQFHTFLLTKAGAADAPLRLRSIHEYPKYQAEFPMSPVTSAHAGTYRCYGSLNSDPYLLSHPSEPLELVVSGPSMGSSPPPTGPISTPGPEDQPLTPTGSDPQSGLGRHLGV
# Assay: competition ELISA (Example 3): biotinylated LILRB2 ECD with avidin-HRP pre-incubated with antibody 0.1-100 nM, residual binding to coated B2M-HLA-G-mouse IgG2a-Fc; blocked ligand HLA-G
row,IC50 (read off the curve),Molecule
1,3 nM,"Ref065 [IO-108, LILRB2 specific] (antibody)"

# Target: T2, recombinant LILRB1 ECD (human, UniProt Q8NHL6 24-461)
# T2 construct: also called biotinylated LILRB1 ECD
# T2 sequence (Q8NHL6 24-461 limits assumed): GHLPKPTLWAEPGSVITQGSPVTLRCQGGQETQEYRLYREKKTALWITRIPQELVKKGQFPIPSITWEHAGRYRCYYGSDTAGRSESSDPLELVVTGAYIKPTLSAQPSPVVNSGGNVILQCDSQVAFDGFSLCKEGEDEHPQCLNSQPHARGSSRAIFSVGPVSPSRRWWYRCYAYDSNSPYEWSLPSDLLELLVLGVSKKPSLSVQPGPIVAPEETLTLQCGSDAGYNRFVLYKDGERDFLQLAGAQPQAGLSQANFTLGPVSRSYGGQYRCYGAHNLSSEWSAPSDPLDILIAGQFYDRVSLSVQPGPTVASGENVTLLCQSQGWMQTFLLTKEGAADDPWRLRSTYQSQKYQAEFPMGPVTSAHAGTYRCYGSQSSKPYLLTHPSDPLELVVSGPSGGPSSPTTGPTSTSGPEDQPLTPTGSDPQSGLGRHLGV
# Assay: ELISA, LILRB1 ECD binding to HLA-G-Fc
# In short: (§1)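 Plates coated with 2 ug/mL B2M-HLA-G–mouse IgG2a-Fc. Antibodies (final 100 nM to 0.1 nM) premixed 1 h at room temperature with LILRB ECD/avidin-HRP, then applied to the HLA-G plate for 15 min. Residual LILRB binding read by TMB development.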
row,IC50,Molecule
1,5.7 nM,B1
2,3.9 nM,B2
3,5.1 nM,B3
4,6.1 nM,B4
5,7 nM,B5
6,3.9 nM,B6
7,6.5 nM,B7
8,6.7 nM,B8
9,4.1 nM,B9
10,10.5 nM,B10
11,8.3 nM,B11
12,1.9 nM,B12
13,2 nM,B13
14,2.1 nM,B14
15,1.5 nM,B15
16,2 nM,B16
17,2.2 nM,B17

# Target: LILRA3 on transiently transfected Expi293 cells (human) (UniProt Q8N6C8)
# Sequence (Q8N6C8 24-439 limits assumed): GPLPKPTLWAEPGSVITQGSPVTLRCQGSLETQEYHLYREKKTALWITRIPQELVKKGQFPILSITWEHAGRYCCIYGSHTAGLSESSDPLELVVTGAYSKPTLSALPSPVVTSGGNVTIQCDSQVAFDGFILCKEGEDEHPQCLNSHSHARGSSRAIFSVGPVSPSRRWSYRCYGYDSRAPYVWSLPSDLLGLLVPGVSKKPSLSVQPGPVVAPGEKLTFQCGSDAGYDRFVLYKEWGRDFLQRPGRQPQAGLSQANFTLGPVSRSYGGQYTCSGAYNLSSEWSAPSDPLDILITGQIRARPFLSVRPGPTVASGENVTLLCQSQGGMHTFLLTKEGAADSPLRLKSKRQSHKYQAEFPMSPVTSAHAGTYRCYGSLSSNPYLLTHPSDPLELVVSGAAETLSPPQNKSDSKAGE
# Assay: flow cytometry, transfected Expi293 cells
row,EC50,Molecule
1,7.8 nM,B1

# Target: LILRB2 on transiently transfected Expi293 cells (human) (UniProt Q8N423)
# Sequence (Q8N423 22-597 limits assumed): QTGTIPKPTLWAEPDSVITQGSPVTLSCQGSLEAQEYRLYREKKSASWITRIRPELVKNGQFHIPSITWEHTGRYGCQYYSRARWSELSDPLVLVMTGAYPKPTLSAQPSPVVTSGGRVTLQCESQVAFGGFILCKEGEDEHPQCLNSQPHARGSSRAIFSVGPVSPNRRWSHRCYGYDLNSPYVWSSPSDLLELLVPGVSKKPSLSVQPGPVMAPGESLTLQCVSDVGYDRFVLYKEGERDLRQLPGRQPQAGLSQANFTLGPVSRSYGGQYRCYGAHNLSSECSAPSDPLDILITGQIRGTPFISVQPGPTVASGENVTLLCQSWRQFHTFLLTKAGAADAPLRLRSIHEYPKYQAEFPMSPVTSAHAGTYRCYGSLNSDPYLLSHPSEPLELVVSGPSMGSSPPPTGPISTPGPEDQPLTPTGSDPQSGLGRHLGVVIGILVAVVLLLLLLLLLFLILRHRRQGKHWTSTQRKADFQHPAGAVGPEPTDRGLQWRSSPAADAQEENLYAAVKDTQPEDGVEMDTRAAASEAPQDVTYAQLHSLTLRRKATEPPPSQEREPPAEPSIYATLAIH
# Assay: flow cytometry, transfected Expi293 cells
row,EC50,Molecule
1,17.3 nM,B1
2,1.7 nM,B18

# Target: LILRA1 on transiently transfected Expi293 cells (human) (UniProt O75019)
# Sequence (O75019 17-489 limits assumed): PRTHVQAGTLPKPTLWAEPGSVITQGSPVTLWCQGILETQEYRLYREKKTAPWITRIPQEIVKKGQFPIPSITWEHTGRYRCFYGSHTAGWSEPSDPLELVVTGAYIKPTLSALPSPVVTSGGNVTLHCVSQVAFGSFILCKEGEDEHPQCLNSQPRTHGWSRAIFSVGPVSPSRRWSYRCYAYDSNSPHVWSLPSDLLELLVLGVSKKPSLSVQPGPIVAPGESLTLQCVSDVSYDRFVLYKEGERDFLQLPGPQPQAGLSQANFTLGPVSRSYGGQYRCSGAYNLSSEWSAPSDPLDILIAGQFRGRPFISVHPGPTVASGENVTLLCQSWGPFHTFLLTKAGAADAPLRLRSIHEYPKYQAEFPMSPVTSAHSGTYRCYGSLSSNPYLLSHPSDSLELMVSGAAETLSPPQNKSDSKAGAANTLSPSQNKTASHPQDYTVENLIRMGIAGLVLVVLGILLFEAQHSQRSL
# Assay: flow cytometry, transfected Expi293 cells
row,EC50,Molecule
1,3.7 nM,B1

# Target: LILRB1 on transiently transfected Expi293 cells (human) (UniProt Q8NHL6)
# Sequence (Q8NHL6 24-650 limits assumed): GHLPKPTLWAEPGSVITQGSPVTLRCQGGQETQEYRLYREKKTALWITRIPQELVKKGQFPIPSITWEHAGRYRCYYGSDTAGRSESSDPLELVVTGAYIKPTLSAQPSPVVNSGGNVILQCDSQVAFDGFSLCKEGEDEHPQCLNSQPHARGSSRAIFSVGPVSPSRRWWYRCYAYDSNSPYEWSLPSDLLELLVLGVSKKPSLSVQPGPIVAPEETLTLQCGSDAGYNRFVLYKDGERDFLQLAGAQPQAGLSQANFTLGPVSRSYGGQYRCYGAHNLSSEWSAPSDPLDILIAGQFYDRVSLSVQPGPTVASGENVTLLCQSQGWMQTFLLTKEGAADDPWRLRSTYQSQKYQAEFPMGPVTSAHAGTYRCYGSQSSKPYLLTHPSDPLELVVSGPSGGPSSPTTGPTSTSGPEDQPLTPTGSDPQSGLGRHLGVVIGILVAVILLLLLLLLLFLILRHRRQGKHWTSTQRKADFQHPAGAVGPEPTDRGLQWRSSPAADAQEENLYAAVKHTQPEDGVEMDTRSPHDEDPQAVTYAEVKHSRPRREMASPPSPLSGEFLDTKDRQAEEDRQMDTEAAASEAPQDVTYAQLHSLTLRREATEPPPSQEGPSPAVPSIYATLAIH
# Assay: flow cytometry, transfected Expi293 cells
row,EC50,Molecule
1,9.1 nM,B1

# Target: T1, recombinant LILRB2 ECD
# Assay: ELISA, LILRB2 ECD binding to HLA-G-Fc
# In short: as §1
row,IC50,Molecule
1,4.7 nM,B1
2,3.1 nM,B18
3,3.3 nM,B2
4,4.3 nM,B3
5,5.3 nM,B4
6,5.6 nM,B5
7,3.9 nM,B6
8,5.6 nM,B7
9,4.4 nM,B8
10,4.2 nM,B9
11,7.6 nM,B10
12,8.6 nM,B11
13,4.6 nM,B12
14,2.4 nM,B13
15,7 nM,B14
16,4.4 nM,B15
17,4.1 nM,B16
18,3.4 nM,B17

# Target: T3, recombinant LILRA1 ECD (human, UniProt O75019 17-461)
# T3 construct: whole canonical entry named; also called LILA1
# T3 sequence (O75019 17-461 limits assumed): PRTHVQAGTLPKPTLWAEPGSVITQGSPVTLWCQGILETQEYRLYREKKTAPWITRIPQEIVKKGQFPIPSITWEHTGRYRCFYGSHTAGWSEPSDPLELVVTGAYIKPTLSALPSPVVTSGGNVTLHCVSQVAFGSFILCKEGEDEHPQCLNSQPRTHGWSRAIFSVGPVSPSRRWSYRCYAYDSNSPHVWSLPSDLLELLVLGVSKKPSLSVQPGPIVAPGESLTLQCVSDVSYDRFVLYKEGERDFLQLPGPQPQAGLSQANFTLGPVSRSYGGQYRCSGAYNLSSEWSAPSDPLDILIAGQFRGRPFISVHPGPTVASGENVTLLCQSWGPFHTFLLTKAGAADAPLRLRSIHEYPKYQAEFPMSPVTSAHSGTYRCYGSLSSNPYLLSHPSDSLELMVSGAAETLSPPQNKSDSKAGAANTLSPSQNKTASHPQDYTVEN
# Assay: BLI, IgG on AHC sensor, ECD in solution
# Method: (§2) Briefly, IgGs were captured on anti-human capture (AHC) biosensors (Sartorius). […] Subsequently, the sensors were dipped into 1× Kinetics Buffer to measure the dissociation over 420 s. All sensorgrams were double referenced against 1× Kinetics Buffer and unloaded […] sensors to subtract sensor drifts and potential reference binding of the analytes. The affinities were determined by applying a 1:1 binding model.
row,Kd,Molecule
1,0.6 nM,B1
2,31.8 nM,B2
3,71.3 nM,B3
4,120 nM,B4
5,33.9 nM,B5
6,48.3 nM,B6
7,29.5 nM,B7
8,63.8 nM,B8
9,11.6 nM,B9
10,79.5 nM,B10
11,23 nM,B11
12,128 nM,B12
13,1030 nM,B13
14,51.6 nM,B14
15,242 nM,B15
16,1070 nM,B16
17,209 nM,B17

# Target: T4, recombinant LILRA3 (human, UniProt Q8N6C8 24-439)
# T4 construct: whole entry named; also called LILRA3 ECD; LILA3
# T4 sequence (Q8N6C8 24-439 limits assumed): as the sequence (Q8N6C8 24-439 limits assumed) above
# Assay: BLI, IgG on AHC sensor, ECD in solution
# Method: as §2
row,Kd,Molecule
1,1.4 nM,B1
2,64.8 nM,B2
3,166 nM,B3
4,79.3 nM,B4
5,124 nM,B5
6,187 nM,B6
7,123 nM,B7
8,124 nM,B8
9,50.1 nM,B9
10,253 nM,B10
11,84.8 nM,B11
12,318 nM,B12
13,1550 nM,B13
14,345 nM,B14
15,465 nM,B15
16,1970 nM,B16
17,448 nM,B17

# Target: T1, recombinant LILRB2 ECD
# Assay: BLI, IgG on AHC sensor, ECD in solution
# Method: as §2
row,Kd,Molecule
1,0.4 nM,B1
2,3.4 nM,B18
3,3.6 nM,B2
4,4.2 nM,B3
5,3.9 nM,B4
6,1.9 nM,B5
7,1.6 nM,B6
8,2.7 nM,B7
9,3.2 nM,B8
10,0.9 nM,B9
11,2.5 nM,B10
12,1.4 nM,B11
13,1.7 nM,B12
14,13.7 nM,B13
15,0.3 nM,B14
16,5.8 nM,B15
17,5.6 nM,B16
18,4.8 nM,B17

# Target: T2, recombinant LILRB1 ECD
# Assay: BLI, IgG on AHC sensor, ECD in solution
# Method: as §2
row,Kd,Molecule
1,0.5 nM,B1
2,1.2 nM,B2
3,1.8 nM,B3
4,4.4 nM,B4
5,0.5 nM,B5
6,1.8 nM,B6
7,1.9 nM,B7
8,3.2 nM,B8
9,0.8 nM,B9
10,2.2 nM,B10
11,0.5 nM,B11
12,2.6 nM,B12
13,21.6 nM,B13
14,6.6 nM,B14
15,17.5 nM,B15
16,8.7 nM,B16
17,6.7 nM,B17

# Target: LILRB2 on primary monocytes (human) (UniProt Q8N423)
# Sequence (Q8N423 22-597 limits assumed): as the sequence (Q8N423 22-597 limits assumed) above
# Assay: flow cytometry, primary monocytes
row,EC50,Molecule
1,1 nM,B18

# Target: LILRB2 on Jurkat reporter cells (ILT4/HLA-G Blockade Bioassay Kit, Promega) (human) (UniProt Q8N423)
# Sequence (Q8N423 22-597 limits assumed): as above
# Assay: cell-based or functional assay
row,luminescence of LILRB2-expressing Jurkat reporter cells with HLA-G expressing APC/CHO-K1 cells (ILT4/HLA-G Blockade Bioassay),Molecule
1,0.9 nM,B1
